Results as given in patent US20240309109A1 (MorphoSys, published 2024).

How the values were obtained:
human CD38 on cells = target: T1, human CD38 on cells (human, UniProt P28907 1-300); assay: FACS Scatchard on RPMI8226 cells
T1 construct: The cell that carried CD38 is named under assay in each row; also called CD38 on Raji, RPMI8226, OPM2, CCRF-CEM, human erythrocytes, CD38 CHO-K1 transfectants

[1] = target: CD38 (antigen of the Bioveris affinity determination) (Homo sapiens (Human), UniProt P28907 45-300, limits assumed); assay: Bioveris, Fab format
[2] = target: T2, human CD38 Fc-fusion aa 45-300 (human, UniProt P28907 45-300); assay: SPR (Biacore), Fab format
T2 construct: Expressed in HEK293 behind a human Vkappa leader, which is left out here; also called CD38-Fc fusion protein; CD38 Fc-Fusion protein

[3] = target: T2, human CD38 Fc-fusion aa 45-300; assay: ELISA on CD38 Fc-fusion protein, IgG format

EC50 (human CD38 on cells) [nM]	Kd [1] [nM]	Kd [2] [nM]	ELISA CD38 Fc-Fusion protein (% Reactivity of MOR03087) [3] [%]	Binder
6.36	0.0585	22.7		MOR06204 Fab (Fab, V domains shown, Fab format) VH: QVQLVESGGGLVQPGGSLRLSCAASGFTFSSYAMNWVRQAPGKGLEWVSHIRKKNTSYTTEYAASVKGRFTISRDNSKNTLYLQMNSLRAEDTAVYYCAREDGSYMTDYFAYWGQGTLVTVSS VL: DIELTQPPSVSVAPGQTARISCSGDNIGHYYVSWYQQKPGQAPVLVIYSDSNRPSGIPERFSGSNSGNTATLTISGTQAEDEADYYCQSYNGTYVFGGGTKLTVL
5.32	0.0936	5.26		MOR06214 Fab (Fab, V domains shown, Fab format) VH: QVQLVESGGGLVQPGGSLRLSCAASGFTFSSYAMNWVRQAPGKGLEWVSNIQRVGSTYYADSVKGRFTISRDNSKNTLYLQMNSLRAEDTAVYYCAREDGSYMTDYFAYWGQGTLVTVSS VL: DIELTQPPSVSVAPGQTARISCSGDNIGHYYVSWYQQKPGQAPVLVIYSDSNRPSGIPERFSGSNSGNTATLTISGTQAEDEADYYCQSYNGTYVFGGGTKLTVL
			155	MOR06195 IgG (antibody, V domains shown, copies: 2 + 2) VH: QVQLVESGGGLVQPGGSLRLSCAASGFTFSSYYMNWVRQAPGKGLEWVSAISGNGGHTYYADSVKGRFTISRDNSKNTLYLQMNSLRAEDTAVYYCARDLPLVYTGFAYWGQGTLVTVSS VL: DIELTQPPSVSVAPGQTARISCSGDNLRHYYVYWYQQKPGQAPVLVIYGDSKRPSGIPERFSGSNSGNTATLTISGTQAEDEADYYCQTYTGGASLVFGGGTKLTVLG
5.02	0.0599	7.92		MOR06200 Fab (Fab, V domains shown, Fab format) VH: QVQLVESGGGLVQPGGSLRLSCAASGFTFSSYYMNWVRQAPGKGLEWVSAISNNGNVTYYADSVKGRFTISRDNSKNTLYLQMNSLRAEDTAVYYCARDLPLVYTGFAYWGQGTLVTVSS VL: DIELTQPPSVSVAPGQTARISCSGDNLRHYYVYWYQQKPGQAPVLVIYGDSKRPSGIPERFSGSNSGNTATLTISGTQAEDEADYYCQTYTGGASLVFGGGTKLTVL
7.3	0.0137	4.39		MOR06185 Fab (Fab, V domains shown, Fab format) VH: QVQLVESGGGLVQPGGSLRLSCAASGFTFSSYYMNWVRQAPGKGLEWVSAISMNGDYISYADSVKGRFTISRDNSKNTLYLQMNSLRAEDTAVYYCARDLPLVYTGFAYWGQGTLVTVSS VL: DIELTQPPSVSVAPGQTARISCSGDNLRHYYVYWYQQKPGQAPVLVIYGDSKRPSGIPERFSGSNSGNTATLTISGTQAEDEADYYCQTYTGGASLVFGGGTKLTVL
28.1	0.026	13.5		MOR06183 Fab (Fab, V domains shown, Fab format) VH: QVQLVESGGGLVQPGGSLRLSCAASGFTFSSYYMNWVRQAPGKGLEWVSGINMESTRIYYADSVKGRFTISRDNSKNTLYLQMNSLRAEDTAVYYCARDLPLVYTGFAYWGQGTLVTVSS VL: DIELTQPPSVSVAPGQTARISCSGDNLRHYYVYWYQQKPGQAPVLVIYGDSKRPSGIPERFSGSNSGNTATLTISGTQAEDEADYYCQTYTGGASLVFGGGTKLTVL
16.9	0.0454	12.5		MOR06187 Fab (Fab, V domains shown, Fab format) VH: QVQLVESGGGLVQPGGSLRLSCAASGFTFSSYYMNWVRQAPGKGLEWVSAISSNGDITYYADSVKGRFTISRDNSKNTLYLQMNSLRAEDTAVYYCARDLPLVYTGFAYWGQGTLVTVSS VL: DIELTQPPSVSVAPGQTARISCSGDNLRHYYVYWYQQKPGQAPVLVIYGDSKRPSGIPERFSGSNSGNTATLTISGTQAEDEADYYCQTYTGGASLVFGGGTKLTVL
11.7	0.0488	15.7		MOR06190 Fab (Fab, V domains shown, Fab format) VH: QVQLVESGGGLVQPGGSLRLSCAASGFTFSSYYMNWVRQAPGKGLEWVSYINPNGMMTNYADSVKGRFTISRDNSKNTLYLQMNSLRAEDTAVYYCARDLPLVYTGFAYWGQGTLVTVSS VL: DIELTQPPSVSVAPGQTARISCSGDNLRHYYVYWYQQKPGQAPVLVIYGDSKRPSGIPERFSGSNSGNTATLTISGTQAEDEADYYCQTYTGGASLVFGGGTKLTVL
4.01	0.0662	9.68		MOR06184 Fab (Fab, V domains shown, Fab format) VH: QVQLVESGGGLVQPGGSLRLSCAASGFTFSSYYMNWVRQAPGKGLEWVSAISHDGNVKYYADSVKGRFTISRDNSKNTLYLQMNSLRAEDTAVYYCARDLPLVYTGFAYWGQGTLVTVSS VL: DIELTQPPSVSVAPGQTARISCSGDNLRHYYVYWYQQKPGQAPVLVIYGDSKRPSGIPERFSGSNSGNTATLTISGTQAEDEADYYCQTYTGGASLVFGGGTKLTVL
6.47	0.00509	4.62		MOR06186 Fab (Fab, V domains shown, Fab format) VH: QVQLVESGGGLVQPGGSLRLSCAASGFTFSSYYMNWVRQAPGKGLEWVSAINLSGSAKYYADSVKGRFTISRDNSKNTLYLQMNSLRAEDTAVYYCARDLPLVYTGFAYWGQGTLVTVSS VL: DIELTQPPSVSVAPGQTARISCSGDNLRHYYVYWYQQKPGQAPVLVIYGDSKRPSGIPERFSGSNSGNTATLTISGTQAEDEADYYCQTYTGGASLVFGGGTKLTVL
			138	MOR06197 IgG (antibody, V domains shown, copies: 2 + 2) VH: QVQLVESGGGLVQPGGSLRLSCAASGFTFSSYYMNWVRQAPGKGLEWVSAISMDGVYKYYADSVKGRFTISRDNSKNTLYLQMNSLRAEDTAVYYCARDLPLVYTGFAYWGQGTLVTVSS VL: DIELTQPPSVSVAPGQTARISCSGDNLRHYYVYWYQQKPGQAPVLVIYGDSKRPSGIPERFSGSNSGNTATLTISGTQAEDEADYYCQTYTGGASLVFGGGTKLTVLG
22.7	0.0593	3.96		MOR06188 Fab (Fab, V domains shown, Fab format) VH: QVQLVESGGGLVQPGGSLRLSCAASGFTFSSYYMNWVRQAPGKGLEWVSAISTNGWQTYYADSVKGRFTISRDNSKNTLYLQMNSLRAEDTAVYYCARDLPLVYTGFAYWGQGTLVTVSS VL: DIELTQPPSVSVAPGQTARISCSGDNLRHYYVYWYQQKPGQAPVLVIYGDSKRPSGIPERFSGSNSGNTATLTISGTQAEDEADYYCQTYTGGASLVFGGGTKLTVL
			137	MOR06201 IgG (antibody, V domains shown, copies: 2 + 2) VH: QVQLVESGGGLVQPGGSLRLSCAASGFTFSSYYMNWVRQAPGKGLEWVSAISMHGDTTYYADSVKGRFTISRDNSKNTLYLQMNSLRAEDTAVYYCARDLPLVYTGFAYWGQGTLVTVSS VL: DIELTQPPSVSVAPGQTARISCSGDNLRHYYVYWYQQKPGQAPVLVIYGDSKRPSGIPERFSGSNSGNTATLTISGTQAEDEADYYCQTYTGGASLVFGGGTKLTVLG
6.92	0.0127	4.81		MOR06197 Fab (Fab, V domains shown, Fab format) VH: QVQLVESGGGLVQPGGSLRLSCAASGFTFSSYYMNWVRQAPGKGLEWVSAISMDGVYKYYADSVKGRFTISRDNSKNTLYLQMNSLRAEDTAVYYCARDLPLVYTGFAYWGQGTLVTVSS VL: DIELTQPPSVSVAPGQTARISCSGDNLRHYYVYWYQQKPGQAPVLVIYGDSKRPSGIPERFSGSNSGNTATLTISGTQAEDEADYYCQTYTGGASLVFGGGTKLTVL
7.07	0.0747	5.01		MOR06192 Fab (Fab, V domains shown, Fab format) VH: QVQLVESGGGLVQPGGSLRLSCAASGFTFSSYYMNWVRQAPGKGLEWVSVISPGGEAKSYADSVKGRFTISRDNSKNTLYLQMNSLRAEDTAVYYCARDLPLVYTGFAYWGQGTLVTVSS VL: DIELTQPPSVSVAPGQTARISCSGDNLRHYYVYWYQQKPGQAPVLVIYGDSKRPSGIPERFSGSNSGNTATLTISGTQAEDEADYYCQTYTGGASLVFGGGTKLTVL
			111	MOR06192 IgG (antibody, V domains shown, copies: 2 + 2) VH: QVQLVESGGGLVQPGGSLRLSCAASGFTFSSYYMNWVRQAPGKGLEWVSVISPGGEAKSYADSVKGRFTISRDNSKNTLYLQMNSLRAEDTAVYYCARDLPLVYTGFAYWGQGTLVTVSS VL: DIELTQPPSVSVAPGQTARISCSGDNLRHYYVYWYQQKPGQAPVLVIYGDSKRPSGIPERFSGSNSGNTATLTISGTQAEDEADYYCQTYTGGASLVFGGGTKLTVLG
9.41	0.0247	4.95		MOR06189 Fab (Fab, V domains shown, Fab format) VH: QVQLVESGGGLVQPGGSLRLSCAASGFTFSSYYMNWVRQAPGKGLEWVSAINMIGNVTNYADSVKGRFTISRDNSKNTLYLQMNSLRAEDTAVYYCARDLPLVYTGFAYWGQGTLVTVSS VL: DIELTQPPSVSVAPGQTARISCSGDNLRHYYVYWYQQKPGQAPVLVIYGDSKRPSGIPERFSGSNSGNTATLTISGTQAEDEADYYCQTYTGGASLVFGGGTKLTVL
5.6	0.0557	4.52		MOR06195 Fab (Fab, V domains shown, Fab format) VH: QVQLVESGGGLVQPGGSLRLSCAASGFTFSSYYMNWVRQAPGKGLEWVSAISGNGGHTYYADSVKGRFTISRDNSKNTLYLQMNSLRAEDTAVYYCARDLPLVYTGFAYWGQGTLVTVSS VL: DIELTQPPSVSVAPGQTARISCSGDNLRHYYVYWYQQKPGQAPVLVIYGDSKRPSGIPERFSGSNSGNTATLTISGTQAEDEADYYCQTYTGGASLVFGGGTKLTVL
9	0.0186	6.81		MOR06201 Fab (Fab, V domains shown, Fab format) VH: QVQLVESGGGLVQPGGSLRLSCAASGFTFSSYYMNWVRQAPGKGLEWVSAISMHGDTTYYADSVKGRFTISRDNSKNTLYLQMNSLRAEDTAVYYCARDLPLVYTGFAYWGQGTLVTVSS VL: DIELTQPPSVSVAPGQTARISCSGDNLRHYYVYWYQQKPGQAPVLVIYGDSKRPSGIPERFSGSNSGNTATLTISGTQAEDEADYYCQTYTGGASLVFGGGTKLTVL
